Measurements taken from patent US20230080224A1 (AGENCY FOR SCIENCE TECHNOLOGY AND RESEARCH, published 2023).

Experiments:
[1] = target: T1, human ALPPL2 expressed on cells (human, UniProt P10696 20-503); assay: FACS (FIG. 13)
T1 construct: whole, on cells; also called placental-like alkaline phosphatase

[2] = target: T2, human ALPP expressed on cells (human, UniProt P05187 23-506); assay: FACS (FIG. 13)
T2 construct: whole, on cells

[3] = target: T3, human ALPPL2 (recombinant protein) (human, UniProt P10696 20-503); assay: BLI
T3 chain: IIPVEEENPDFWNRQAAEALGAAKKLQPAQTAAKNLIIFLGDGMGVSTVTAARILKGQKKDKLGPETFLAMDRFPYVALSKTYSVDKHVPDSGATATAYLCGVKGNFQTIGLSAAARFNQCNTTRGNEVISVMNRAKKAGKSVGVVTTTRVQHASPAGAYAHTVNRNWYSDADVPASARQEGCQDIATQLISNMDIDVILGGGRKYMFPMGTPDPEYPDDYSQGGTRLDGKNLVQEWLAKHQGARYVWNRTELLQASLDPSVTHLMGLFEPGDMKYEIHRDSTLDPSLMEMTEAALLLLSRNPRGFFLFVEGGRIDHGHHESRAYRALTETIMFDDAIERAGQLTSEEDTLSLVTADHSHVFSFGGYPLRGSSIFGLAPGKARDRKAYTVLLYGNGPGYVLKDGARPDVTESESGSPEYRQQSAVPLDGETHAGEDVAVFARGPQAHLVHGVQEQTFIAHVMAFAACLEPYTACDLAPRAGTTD

[4] = target: T4, human ALPP (recombinant protein) (human, UniProt P05187 23-506); assay: BLI
T4 chain: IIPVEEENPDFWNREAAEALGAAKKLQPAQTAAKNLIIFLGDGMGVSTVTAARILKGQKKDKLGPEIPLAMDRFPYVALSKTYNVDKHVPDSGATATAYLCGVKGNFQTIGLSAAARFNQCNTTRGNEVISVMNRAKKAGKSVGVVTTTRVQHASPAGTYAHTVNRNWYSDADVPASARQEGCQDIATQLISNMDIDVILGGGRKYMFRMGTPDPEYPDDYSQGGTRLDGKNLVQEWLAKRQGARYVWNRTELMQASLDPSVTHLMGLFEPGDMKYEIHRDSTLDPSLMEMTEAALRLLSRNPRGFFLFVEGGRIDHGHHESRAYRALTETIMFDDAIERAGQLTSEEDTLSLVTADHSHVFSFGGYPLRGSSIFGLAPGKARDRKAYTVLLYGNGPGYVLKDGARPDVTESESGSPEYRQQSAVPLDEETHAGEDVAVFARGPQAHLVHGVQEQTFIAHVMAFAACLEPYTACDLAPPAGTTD

[5] = target: T5, human ALPI expressed on cells (human, UniProt P09923 20-503); assay: FACS on transiently transfected 293T cells (FIG. 13A)
T5 construct: whole, on cells
T5 sequence (looked up): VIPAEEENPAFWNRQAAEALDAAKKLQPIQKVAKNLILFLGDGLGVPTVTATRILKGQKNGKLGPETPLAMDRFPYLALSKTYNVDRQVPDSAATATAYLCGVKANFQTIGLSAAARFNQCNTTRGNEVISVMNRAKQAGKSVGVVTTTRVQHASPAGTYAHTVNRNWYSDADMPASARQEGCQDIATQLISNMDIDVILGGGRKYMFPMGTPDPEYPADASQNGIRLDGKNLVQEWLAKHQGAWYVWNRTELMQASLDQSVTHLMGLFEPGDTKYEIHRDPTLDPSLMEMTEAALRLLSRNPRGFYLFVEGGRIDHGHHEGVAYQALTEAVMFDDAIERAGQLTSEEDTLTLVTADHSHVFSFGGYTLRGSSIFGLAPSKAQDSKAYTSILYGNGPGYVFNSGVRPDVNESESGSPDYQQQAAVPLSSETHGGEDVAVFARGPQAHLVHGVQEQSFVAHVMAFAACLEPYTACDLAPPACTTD

[6] = target: T6, human ALPL expressed on cells (human, UniProt P05186 18-501); assay: as above
T6 construct: whole, on cells
T6 sequence (looked up): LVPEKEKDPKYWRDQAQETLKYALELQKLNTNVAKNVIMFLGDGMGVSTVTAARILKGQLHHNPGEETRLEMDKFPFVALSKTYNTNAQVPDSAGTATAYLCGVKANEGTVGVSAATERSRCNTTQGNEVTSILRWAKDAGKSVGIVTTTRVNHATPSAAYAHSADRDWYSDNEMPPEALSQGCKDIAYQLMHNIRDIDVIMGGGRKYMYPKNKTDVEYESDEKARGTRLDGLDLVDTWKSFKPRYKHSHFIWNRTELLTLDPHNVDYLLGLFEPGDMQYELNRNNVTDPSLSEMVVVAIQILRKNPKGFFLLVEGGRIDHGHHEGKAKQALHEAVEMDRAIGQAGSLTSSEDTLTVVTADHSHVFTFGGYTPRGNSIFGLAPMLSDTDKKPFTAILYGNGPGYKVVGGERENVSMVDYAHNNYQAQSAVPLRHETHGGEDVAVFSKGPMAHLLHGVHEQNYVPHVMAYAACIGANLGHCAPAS

[7] = target: T7, human ALPPL2 (recombinant protein) (human, UniProt P10696 20-503, limits assumed); assay: SPR, Biacore T200, ligand captured by streptavidin on CM5 chip, antibody as analyte
T7 construct: biotinylated where captured on streptavidin
Method: (§1) Select clones (C4, C15, C131, C12, C18, C36 and C53) were humanized by grafting the CDRs to a human IgG1 framework. […] Surface plasmon resonance was studied using Biacore T200. Ligands (e.g. ALPPL2 or ALPP) were immobilized on biosensors CM5 chips captured with the streptavidin. Ligands-loaded sensors were then incubated with different concentrations of analyte (recombinant expressed humanized antibody clones) to measure affinity.

[8] = target: human ALPP (recombinant protein) (human, UniProt P05187 23-506, limits assumed); assay: as above
Method: as §1

[9] = target: T3, human ALPPL2 (recombinant protein); assay: SPR
[10] = target: T4, human ALPP (recombinant protein); assay: SPR
[11] = target: T7, human ALPPL2 (recombinant protein); assay: screen of rabbit B-cell clones by ELISA and FACS
Excerpt: (§2) Specific clones were screened and identified by ELISA and high throughput flow cytometry (FIG. 3). Rabbit kidney cells were transfected with either truncated (for ELISA screen) or full-length (for FACS screen) ALPI and ALPPL2.

[12] = target: T8, ALPI (screening and SPR/ELISA protein) (UniProt P09923 20-503, limits assumed); assay: screen of rabbit B-cell clones by ELISA and FACS
T8 sequence (looked up): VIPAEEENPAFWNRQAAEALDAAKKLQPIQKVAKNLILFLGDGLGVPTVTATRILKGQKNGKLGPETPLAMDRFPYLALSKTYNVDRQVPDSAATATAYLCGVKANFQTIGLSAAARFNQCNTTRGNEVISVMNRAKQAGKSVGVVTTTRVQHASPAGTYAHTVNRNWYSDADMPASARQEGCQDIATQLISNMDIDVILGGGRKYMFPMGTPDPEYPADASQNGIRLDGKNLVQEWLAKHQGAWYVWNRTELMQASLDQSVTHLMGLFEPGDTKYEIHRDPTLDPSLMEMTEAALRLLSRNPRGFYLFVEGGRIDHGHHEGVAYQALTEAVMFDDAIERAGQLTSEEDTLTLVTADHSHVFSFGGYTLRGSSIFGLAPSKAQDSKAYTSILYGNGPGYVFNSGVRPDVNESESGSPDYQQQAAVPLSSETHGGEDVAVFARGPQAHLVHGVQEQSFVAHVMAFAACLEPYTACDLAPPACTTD
Excerpt: as §2

[13] = target: T1, human ALPPL2 expressed on cells; assay: immunohistochemistry on FFPE ALPPL2+ve cell lines and tumor tissues
Method: To enable development of a companion diagnostic, the IHC activity of the antibodies was evaluated (FIG. 5). Antigen retrieval by Proteinase-K digestion, but not heat mediated antigen retrieval, enabled detection. C36, C45 and C130 enabled detection in ALPPL2+ve cell lines (SCH) and formalin fixed paraffin embedded (FFPE) human tumor tissues by IHC. […] This is also indicative the optimal therapeutic window of these antibodies in the clinic.

[14] = target: T3, human ALPPL2 (recombinant protein); assay: BLI; single concentration

B1: humanized C36 (antibody, human IgG1, V domains shown)
VH: EVQLVESGGGLVQPGGSLRLSCAASGFSFSSGYNICWVRQAPGKGLELIACIYTSSSGSTYYASWAKGRFTISRDNSKNTLYLQMNSLRAEDTAVYYCARGEAYYAYGYVGYAYYHGAFDPWGQGTLVTVSS
VL: DIQMTQSPSSLSASVGDRVTITCQASHSISKYFSWYQQKPGKVPKLLIYEASTLASGVPSRFSGSGSGTDFTLTISSLQPEDVATYYCQSYYYGTSSSYAFGQGTKVEIK
notes: CDRs grafted to a human IgG1 framework; recombinant; also called hC36
With B1 the binding result [1] was “binds”, the binding result [2] was “binds” and the Kd [3] was 0.3 nM. The Kd [4] was 0.2 nM, the binding result [5] was “no binding” and the binding result [6] was “no binding”. B1: binds [7]; binds [8].

B2: humanized C4 (antibody, V domains shown)
VH: EVQLVESGGGLVQPGGSLRLSCAASGFTISNNYWICWVRQAPGKGLEWIGCIATGDGSTYYASWAKGRFTISRDNSKNTLYLQMNSLRAEDTAVYYCARGAAGSSWTTYFDFWGQGTLVTVSS
VL: DIQMTQSPSSLSASVGDRVTITCQAGQNIDNYLSWYQQKPGKVPKLLIYRASTLASGVPSRFSGSGSGTDFTLTISSLQPEDVATYYCQNNNGGSTFTGFPFGQGTKVEIK
notes: CDRs grafted to a human IgG1 framework; recombinant; also called hC4
B2 was tested, and the binding result [1] was “binds”, the binding result [2] was “binds” and the Kd [9] was 0.014 nM. The Kd [10] was 0.0001 nM, the binding result [5] was “no binding” and the binding result [6] was “no binding”. B2: binds [7]; binds [8].

B3: AB1C45 (antibody, V domains shown)
VH: QERLEESGGGLVQPEGSLTLTCTASGFSFSSSYYMCWVRQAPGKGMEWIGCIYTGNDDTWYASWAKGRFTVSKTSSTTVTLQMTSLTATDTATYFCARGLSPIDLWGPGTLVTVSS
VL: IVMTQTPSSKSVPVGDTVTINCQASESIYNNNNLGWYQQKPGQPPKLLIYWASTLASGVPSRFKGSGSGTQFTLTISDVECDDAATYYCAGYKSRTTDGSAFGGGTEVVVK
notes: Rabbit antibody cloned from a single B cell
B3: binds [11]; no binding [12]; binds [13].

B4: AB2C130 (antibody, V domains shown)
VH: QSLEESGGDLVKPGASLTLTCTASGFSFSSGYWICWVRQAPGKGLEWIACIYTGVGATYYASWAKGRFTISKTSSTTVTLQMTSLTAADTATYFCARDFGGSSGFYFNLWGPGTLVTVSS
VL: FELTQTPSSVEAAVGATVTIKCQASQSISNALAWYQQKPGQPPKLLIYSASTLESGVPSRFKGSGSGTEFTLTISDLECADAATYYCQNYYGSTSSSYGVAFGGGTEVVVK
notes: as for B3
In the case of B4, the binding result [11] is reported as “binds”, the binding result [12] is reported as “no binding” and the Kd [14] is reported as 0.001 nM. B4: binds [13].

B5: AB1C36 (antibody, V domains shown)
VH: QSLEESGGDLVKPGASLTLTCTASGFSFSSGYNICWVRQAPGKGLELIACIYTSSSGSTYYASWAKGRFTISKTSSTTVTLQMTSLTVADTATYFCARGEAYYAYGYVGYAYYHGAFDPWGPGTLVTVSS
VL: DIVMTQTPASVEAGVGGTVTIKCQASHSISKYFSWYQQKIGQPPKLLIYEASTLASGVPSRFKGSGSGTQFTLTISDLECADAATYYCQSYYYGTSSSYAFGGGTEVVVK
notes: as for B3
In the case of B5, the binding result [11] is reported as “binds”, the binding result [12] is reported as “no binding” and the Kd [14] is reported as 1.6 nM. B5: binds [13].

B6: humanized C12 (antibody, human IgG1, V domains shown)
VH: EVQLVESGGGLVQPGGSLRLSCAASGFSFSSSYWISWVRQAPGKGLEWIACIAIGSSGTTYYASWAKGRFTISRDNSKNTLYLQMNSLRAEDTAVYYCARSGDGYTYVELWGQGTLVTVSS
VL: DIQMTQSPSSLSASVGDRVTITCQASQSISSYLAWYQQKPGKVPKLLIYRASTLASGVPSRFSGSGSGTDFTLTISSLQPEDVATYYCQNYYDIDDSDNTFGQGTKVEIK
notes: CDRs grafted to a human IgG1 framework; recombinant; also called hC12
For B6, the Kd [9] was 0.08 nM, the Kd [10] was 0.235 nM and the binding result [7] was “binds”. B6: binds [8].

B7: humanized C18 (antibody, human IgG1, V domains shown)
VH: EVQLVESGGGLVQPGGSLRLSCAASGFSFSSYWTCWVRQAPGKGLEWLGCTDGGSSGDTYYATWAKGRFTISRDNSKNTLYLQMNSLRAEDTAVYYCARNLITWDLWGQGTLVTVSS
VL: DIQMTQSPSSLSASVGDRVTITCQASESVYNNNQLSWYQQKPGKVPKLLIYWASKLASGVPSRFSGSGSGTDFTLTISSLQPEDVATYYCAGYKSSITDGNAFGQGTKVEIK
notes: CDRs grafted to a human IgG1 framework; recombinant; also called hC18
B7 was tested, and the Kd [9] was 0.144 nM, the Kd [10] was 0.526 nM and the binding result [7] was “binds”. B7: binds [8].
